According to CN107827984A (ZHANG HUILIN; ZHU JIN, dated 2018):

Legend:
[1] = molecular target: ROR1天然抗原 (人卵巢癌细胞系A2780) (human) (UniProt Q01973); test: flow cytometry on A2780 cells, Fab at 30 μg/mL, FITC goat anti-human Fab secondary
[2] = molecular target: T1, 重组人ROR1蛋白 (北京义翘神州, 产品编号13968-H08H) (human, UniProt Q01973 30-403); test: ELISA, ROR1 coated at 0.5 μg/mL, Fab from 200 μg/mL in 11 dilutions, goat anti-human Fab secondary, OD450
T1 construct: Bought protein; also called recombinant human ROR1 protein
T1 sequence (Q01973 30-403 limits assumed): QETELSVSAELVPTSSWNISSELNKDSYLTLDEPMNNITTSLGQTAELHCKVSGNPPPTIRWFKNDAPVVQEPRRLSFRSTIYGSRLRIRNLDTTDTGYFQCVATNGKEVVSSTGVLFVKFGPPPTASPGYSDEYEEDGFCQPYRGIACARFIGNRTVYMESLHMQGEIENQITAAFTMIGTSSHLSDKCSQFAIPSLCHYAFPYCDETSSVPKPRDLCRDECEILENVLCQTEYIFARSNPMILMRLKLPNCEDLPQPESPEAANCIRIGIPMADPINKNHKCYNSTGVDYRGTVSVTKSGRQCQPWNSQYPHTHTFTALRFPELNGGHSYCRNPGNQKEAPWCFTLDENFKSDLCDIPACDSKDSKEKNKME

B1: 嵌合抗ROR1抗体Fab分子 (Fab, V domains shown)
VH: EVQLVQSGGGLVQPKGSLKLSCAASGFTFNTYAMNWVRQAPGKGLEWVARIRSKSNNYATYYADSVKDRFTISRDDSQSMLYLQMNNLKTEDTAMYYCVSPAYYGNYVGFAYWGQGTLVTVSA
VL: ELVMTQSPTTMAASPGEKITFTCSASSSISSTYLHWFQQKPGFSPKLLIYRTSNLASGVPARFSGSGSGTSYSLTIGTMEAEDVATYYCQQGSSLPFTFGSGTKLEIKG
notes: Human-mouse chimeric Fab, L and Fd joined by an interchain disulfide; also called 抗ROR1抗体人鼠嵌合Fab分子; 抗ROR1抗体嵌合Fab分子
结合率 [1]: 97.4% | binding result [2]: binds
